From paper PMC8002179
Blank lines part the entries; values can stand above or below the substance they belong to.

What was measured:
[1] = target: β-arrestin2 tagged with the mVenus fluorescent protein (UniProt P32121); assay: BRET; details: CXCL12 (100 nM), HEK293T cells, read off a plot
[2] = target: β-arrestin1 tagged with the eYFP fluorescent protein (UniProt P49407); assay: BRET; details: CXCL12 (100 nM), HEK293T cells, read at last time point (~56 min), read off a plot
[3] = target: wild type ACKR3 fused with Renilla luciferase (RLuc) on the C-terminal tail (human) (UniProt P25106)
Chain of UniProt P25106 (P25106 whole entry, the tested form may be a part): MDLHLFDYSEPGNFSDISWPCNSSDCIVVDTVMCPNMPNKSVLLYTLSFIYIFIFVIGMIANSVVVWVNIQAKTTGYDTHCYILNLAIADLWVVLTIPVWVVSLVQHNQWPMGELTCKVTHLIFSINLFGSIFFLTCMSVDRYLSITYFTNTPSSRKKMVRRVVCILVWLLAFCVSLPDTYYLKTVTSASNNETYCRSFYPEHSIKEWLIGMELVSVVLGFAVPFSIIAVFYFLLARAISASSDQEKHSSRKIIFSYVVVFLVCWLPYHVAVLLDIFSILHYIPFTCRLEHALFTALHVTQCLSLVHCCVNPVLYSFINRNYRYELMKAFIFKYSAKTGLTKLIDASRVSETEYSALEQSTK

Chain of CXCL12 (P48061 22-93): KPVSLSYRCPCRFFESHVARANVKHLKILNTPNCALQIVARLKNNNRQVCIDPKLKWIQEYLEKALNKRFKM

response ([1]; read at last time point (~56 min), parent: est. 1.17): 1.14 fold vehicle
response ([2]; parent: est. 1.09): 1.01 fold vehicle
Substance: wild type ACKR3 fused with Renilla luciferase (RLuc) on the C-terminal tail (from UniProt P25106) ST/A 350.355

response ([1]; read at last time point (~33 min), parent: est. 1.13): 1.02 fold vehicle
response ([2]; parent: est. 1.11): 1 fold vehicle
Substance: wild type ACKR3 fused with Renilla luciferase (RLuc) on the C-terminal tail (from UniProt P25106) full ST/A

pEC50 of CXCL12 for ACKR3-RLuc translocation to Rab5a-mVenus (early endosome sensor, BRET, HEK293T) [3]: 9.1 pEC50
pEC50 of CXCL12 for ACKR3-RLuc translocation to Rab11-mVenus (recycling endosome sensor, BRET, HEK293T) [3]: 9.1 pEC50
pEC50 of CXCL12 for GRK2-mVenus recruitment to ACKR3-RLuc (BRET, HEK293T) [3]: 8.2 pEC50
pEC50 of CXCL12 for GRK3-mVenus recruitment to ACKR3-RLuc (BRET, HEK293T) [3]: 8.1 pEC50
pEC50 of CXCL12 for GRK5-mVenus recruitment to ACKR3-RLuc (BRET, HEK293T) [3]: 8.3 pEC50
pEC50 of CXCL12 for loss of ACKR3-RLuc co-localization with K-Ras-mVenus (cell membrane sensor, BRET, HEK293T) [3]: 8.9 pEC50
pEC50 of CXCL12 for β-arrestin1-eYFP recruitment to ACKR3-RLuc (BRET, HEK293T) [3]: 8.1 pEC50
pEC50 of CXCL12 for β-arrestin2-mVenus recruitment to ACKR3-RLuc (BRET, HEK293T) [3]: 8.2 pEC50
Substance: CXCL12 (from UniProt P48061 22-93) (ligand)
